Test results as given in publication PMC5928113, “Properties of the ternary complex formed by yeast eIF4E, p20 and mRNA” (Scientific Reports, 2018).
Numbering of substitutions follows the chain as printed.

Assays:
[1] = target: T1, His6x-eIF4E;p20 N-terminal 18aa peptide (Saccharomyces cerevisiae;Saccharomyces cerevisiae) (UniProt P07260+P12962); test: MST; conditions: equimolar 18aa p20 peptide; 5' m7GpppG cap (Vaccinia Capping System); Buffer A: 10 mM sodium phosphate pH 7.5, 100 mM NaCl, 2.5 mM MgCl2, 1 mM DTT, 0.05% NP40; MST at 25 C (proteins for capped RNA MST RED-tris-NTA labeled in …)
T1 sequence 1: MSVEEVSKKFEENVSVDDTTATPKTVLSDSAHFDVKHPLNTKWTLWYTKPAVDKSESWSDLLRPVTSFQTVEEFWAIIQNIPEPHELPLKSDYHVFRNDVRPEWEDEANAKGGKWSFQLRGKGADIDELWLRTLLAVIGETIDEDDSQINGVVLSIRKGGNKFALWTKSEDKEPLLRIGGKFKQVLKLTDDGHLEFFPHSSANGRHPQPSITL
T1 sequence 2: MIKYTIDELFQLKPSLTL

[2] = target: T2, eIF4E (untagged, co-expressed with p20);His6x-p20 6x mutant R55L;R56L;R57L;H60L;H61L;H62L (Saccharomyces cerevisiae;Saccharomyces cerevisiae) (UniProt P07260+P12962); test: MST; conditions: 5' m7GpppG cap (Vaccinia Capping System); Buffer A: 10 mM sodium phosphate pH 7.5, 100 mM NaCl, 2.5 mM MgCl2, 1 mM DTT, 0.05% NP40; MST at 25 C (proteins for capped RNA MST RED-tris-NTA labeled in …)
T2 sequence 1: T1 sequence 1
T2 sequence 2: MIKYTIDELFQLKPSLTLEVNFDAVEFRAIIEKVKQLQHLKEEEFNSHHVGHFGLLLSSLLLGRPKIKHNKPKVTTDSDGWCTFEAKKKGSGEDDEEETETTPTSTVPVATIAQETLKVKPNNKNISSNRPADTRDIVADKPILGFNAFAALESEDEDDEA

[3] = target: T3, eIF4E (untagged, co-expressed with p20);His6x-p20 WT (Saccharomyces cerevisiae;Saccharomyces cerevisiae) (UniProt P07260+P12962); test: MST; conditions: 5' m7GpppG cap (Vaccinia Capping System), Buffer A: 10 mM sodium phosphate pH 7.5, 100 mM NaCl, 2.5 mM MgCl2, 1 mM DTT, 0.05% NP40, MST at 25 C (proteins for capped RNA MST RED-tris-NTA labeled in …)
T3 sequence 1: T1 sequence 1
T3 sequence 2: T2 sequence 2 with L55R, L56R, L57R, L60H, L61H, L62H

[4] = target: T2, eIF4E (untagged, co-expressed with p20);His6x-p20 6x mutant R55L;R56L;R57L;H60L;H61L;H62L (Saccharomyces cerevisiae;Saccharomyces cerevisiae); test: EMSA; conditions: 5' m7GpppG cap (Vaccinia Capping System); Buffer A: 10 mM sodium phosphate pH 7.5, 100 mM NaCl, 2.5 mM MgCl2, 1 mM DTT, 0.05% NP40; MST at 25 C (proteins for capped RNA MST RED-tris-NTA labeled in …)
[5] = target: T3, eIF4E (untagged, co-expressed with p20);His6x-p20 WT (Saccharomyces cerevisiae;Saccharomyces cerevisiae); test: EMSA; conditions: 5' m7GpppG cap (Vaccinia Capping System); Buffer A: 10 mM sodium phosphate pH 7.5, 100 mM NaCl, 2.5 mM MgCl2, 1 mM DTT, 0.05% NP40; MST at 25 C (proteins for capped RNA MST RED-tris-NTA labeled in …)
[6] = target: T4, eIF4E (untagged, co-expressed with p20);His6x-p20 6x mutant (Saccharomyces cerevisiae;Saccharomyces …, UniProt P07260;P12962 1-213;1-161, |R55L;R56L;R57L;H60L;H61L;H62L); test: MST; Buffer A: 10 mM sodium phosphate pH 7.5, 100 mM NaCl, 2.5 mM MgCl2, 1 mM DTT, 0.05% NP40; MST at 25 C (proteins for capped RNA MST RED-tris-NTA labeled in buffer B: 20 mM HEPES-KOH pH 7.5, 50 mM NaCl, 1 mM DTT); EMSA 1.5% agarose, 1x TBE, temperature not stated; conditions: protein: recombinant;recombinant; tags: ;N-terminal His6x; copies: 1;1; label: 3' FAM
T4 sequence 1: T1 sequence 1
T4 sequence 2: T2 sequence 2

[7] = target: T5, eIF4E (untagged, co-expressed with p20);His6x-p20 WT (Saccharomyces cerevisiae;Saccharomyces …, UniProt P07260;P12962 1-213;1-161, |); test: as above; conditions: protein: recombinant;recombinant; tags: ;N-terminal His6x; copies: 1;1; label: 3' FAM
T5 sequence 1: T1 sequence 1
T5 sequence 2: T2 sequence 2 with L55R, L56R, L57R, L60H, L61H, L62H

[8] = target: T5, eIF4E (untagged, co-expressed with …); test: EMSA; Buffer A: 10 mM sodium phosphate pH 7.5, 100 mM NaCl, 2.5 mM MgCl2, 1 mM DTT, 0.05% NP40; MST at 25 C (proteins for capped RNA MST RED-tris-NTA labeled in buffer B: 20 mM HEPES-KOH pH 7.5, 50 mM NaCl, 1 mM DTT); EMSA 1.5% agarose, 1x TBE, temperature not stated; conditions: protein: recombinant;recombinant; tags: ;N-terminal His6x; copies: 1;1; label: 3' FAM

“GGGAACAAAAGCUGGUAAUCAAGAAUUACAAGAAACAAAAAUUCAAGUAAAUAACAGAUAAUAC [capped SSA1 5'UTR RNA, 64 nt]” was tested, and the Kd [1] was 211 nM, the Kd [2] was 424 nM and the Kd [3] was 44.9 nM. The Kd ([3]; control of the 6x mutant experiment) was 46.9 nM, the Kd [4] was 285 nM and the Kd [5] was 64.9 nM.

B1: uncapped SSA1 5'UTR RNA, 40 nt (ssRNA)
RNA: GUAUUACAAGAAACAAAAAUUCAAGUAAAUAACAGAUAAU
In the case of B1, the Kd [6] is reported as 35500 nM, the Kd [7] is reported as 6240 nM and the Kd [8] is reported as 8800 nM.
